In PMC8549804 (Chemical Science, 2021):

Target: the molecule itself
Experiment: native MS

Protein | stoichiometry N
bacteriophage T4 gene product 32 (gp32) (natural protein, disulfur monoxide moiety at Cys302 (C-terminal, attributed to the intein reaction)) MFKRKSTAELAAQMAKLNGNKGFSSEDKGEWKLKLDNAGNGQAVIRFLPSKNDEQAPFAILVNHGFKKNGKWYIETCSSTHGDYDSCPVCQYISKNDLYNTDNKEYSLVKRKTSYWANILVVKDPAAPENEGKVFKYRFGKKIWDKINAMIAVDVEMGETPVDVTCPWEGANFVLKVKQVSGFSNYDESKFLNQSAIPNIDDESFQKELFEQMVDLSEMTSKDKFKSFEELNTKFGQVMGTAVMGGAAATAAKKADKVADDLDAFNVDDFNTKTEDDFMSSSSGSSSSADDTDLDDLLNDLC | 2
gp32-ΔCTD (amino acids 1-254) (domain or fragment, bacteriophage T4, UniProt P03695 1-254, looked up) MFKRKSTAELAAQMAKLNGNKGFSSEDKGEWKLKLDNAGNGQAVIRFLPSKNDEQAPFAILVNHGFKKNGKWYIETCSSTHGDYDSCPVCQYISKNDLYNTDNKEYSLVKRKTSYWANILVVKDPAAPENEGKVFKYRFGKKIWDKINAMIAVDVEMGETPVDVTCPWEGANFVLKVKQVSGFSNYDESKFLNQSAIPNIDDESFQKELFEQMVDLSEMTSKDKFKSFEELNTKFGQVMGTAVMGGAAATAAKK | 2
